This passage reports Kd and dH results from publication PMC5389710.

For this test, the target named is Arabidopsis thaliana NAP1-related protein 1 (NRP1) (A. thaliana) (UniProt Q9CA59). The test is described as follows: ITC. A general note: In ITC the heat of successive injections is recorded.

A word on the Kd: it is a measure of binding affinity in units of concentration.

Arabidopsis thaliana NAP1-related protein 1 (NRP1) (A. thaliana), sequence (Q9CA59 whole entry): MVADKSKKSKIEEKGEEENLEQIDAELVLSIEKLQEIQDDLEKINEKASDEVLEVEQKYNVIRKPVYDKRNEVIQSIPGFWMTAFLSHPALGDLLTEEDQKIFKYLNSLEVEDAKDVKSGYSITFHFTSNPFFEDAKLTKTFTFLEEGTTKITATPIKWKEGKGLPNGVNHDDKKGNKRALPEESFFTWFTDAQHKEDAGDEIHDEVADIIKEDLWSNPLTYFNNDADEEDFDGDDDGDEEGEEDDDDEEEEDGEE

As to “Arabidopsis thaliana cytochrome c (from UniProt Q9T0G2 1-112) (natural protein)”, the Kd turned out to be 5000 nM. Same read-out and setting: under “Chicken erythrocyte H2A–H2B histone dimer (from UniProt P02263 1-129; P0C1H3 1-126) (complex)” stands 100 nM.

“Xenopus laevis core histone H4 (from UniProt P62799 1-103) (natural protein)” had a dH of -10.4 kcal/mol.
